Assay results reported in PMC6465384.

Biological target: SpyDock (SpyCatcher2.1 S49C E77A), carbamidomethylated
Assay: ITC; 20 μM carbamidomethylated SpyDock in the cell, 20 injections of 210 μM SpyTag-MBP or SpyTag002-MBP from the syringe; 25 °C; 20 mM HEPES pH 7.0, 150 mM NaCl; 1:1 binding model

Which results are given for SpyTag002-MBP?
Kd: 73 nM; stoichiometry N: 1

For SpyTag-MBP, which Kd is on record?
The Kd was 750 nM.

What about the stoichiometry N of the same substance?
Its stoichiometry N is 1.
